The test addresses T1, Human plasminogen (human).
T1 construct: human plasminogen, 92 kDa, commercial; also called PLG; purified plasminogen; source: bought: Sigma-Aldrich
Kind of test: ELISA; plasminogen immobilised on plate wells (1 ug in 100 uL PBS), blocked with 1% gelatin; AdcA 0-1 uM in PBS, 1.5 h at 37 C; bound AdcA detected with rabbit anti-AdcA serum; apparent KD from the fit to total binding saturation (GraphPad Prism); MntC run as control; EACA (0.1-10 mM) or NaCl (25-800 mM) added in further panels. The following applies: both partners purified.

T1 sequence (P00747 20-810): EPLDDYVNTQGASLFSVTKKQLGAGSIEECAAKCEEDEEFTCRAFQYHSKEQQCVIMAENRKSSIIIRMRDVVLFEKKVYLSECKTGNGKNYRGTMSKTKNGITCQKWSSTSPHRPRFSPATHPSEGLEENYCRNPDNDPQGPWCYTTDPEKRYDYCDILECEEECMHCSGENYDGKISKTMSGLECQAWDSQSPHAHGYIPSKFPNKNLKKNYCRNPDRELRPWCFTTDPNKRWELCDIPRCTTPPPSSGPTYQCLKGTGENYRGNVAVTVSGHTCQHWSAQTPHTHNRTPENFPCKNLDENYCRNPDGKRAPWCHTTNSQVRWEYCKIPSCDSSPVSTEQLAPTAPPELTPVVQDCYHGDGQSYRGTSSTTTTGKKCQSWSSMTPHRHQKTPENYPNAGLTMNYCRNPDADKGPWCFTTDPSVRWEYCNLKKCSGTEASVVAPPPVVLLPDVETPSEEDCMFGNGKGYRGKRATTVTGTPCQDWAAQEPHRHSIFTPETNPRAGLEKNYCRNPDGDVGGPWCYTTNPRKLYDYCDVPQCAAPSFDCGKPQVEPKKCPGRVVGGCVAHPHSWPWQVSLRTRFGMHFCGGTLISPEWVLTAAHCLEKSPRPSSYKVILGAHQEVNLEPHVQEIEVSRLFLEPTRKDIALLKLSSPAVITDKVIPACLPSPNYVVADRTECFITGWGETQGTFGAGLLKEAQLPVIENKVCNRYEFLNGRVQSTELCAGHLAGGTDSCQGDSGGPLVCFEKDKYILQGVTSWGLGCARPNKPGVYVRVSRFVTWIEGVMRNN

B1: MntC from Staphylococcus aureus (natural protein)
chain: CGTGGKQSSDKSNGKLKVVTTNSILYDMAKNVGGDNVDIHSIVPVGQDPHEYEVKPKDIKKLTDADVILYNGLNLETGNGWFEKALEQAGKSLKDKKVIAVSKDVKPIYLNGEEGNKDKQDPHAWLSLDNGIKYVKTIQQTFIDNDKKHKADYEKQGNKYIAQLEKLNNDSKDKFNDIPKEQRAMITSEGAFKYFSKQYGITPGYIWEINTEKQGTPEQMRQAIEFVKKHKLKHLLVETSVDKKAMESLSEETKKDIFGEVYTDSIGKEGTKGDSYYKMMKSNIETVHGSMK
In the case of B1, the Kd was 14.8 nM.

Values taken from PMC8878332, “The C-Terminal Domain of Staphylococcus aureus Zinc Transport Protein AdcA Binds Plasminogen and Factor H In Vitro” (Pathogens, 2022).
